Data on three molecules can be found in publication PMC2275139.

Numbering of substitutions follows the chain as printed. Where two headings read alike, the source gives them in different places.

In data set [1] the target is T1, IcaR wild type (Staphylococcus epidermidis ATCC 35984 …, UniProt Q5HKQ1 1-185).
T1 sequence: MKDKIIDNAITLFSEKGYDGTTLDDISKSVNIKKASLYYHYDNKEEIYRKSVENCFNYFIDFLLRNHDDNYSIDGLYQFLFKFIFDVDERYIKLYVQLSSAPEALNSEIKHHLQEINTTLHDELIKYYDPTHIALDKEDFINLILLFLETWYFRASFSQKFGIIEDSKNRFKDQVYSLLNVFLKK
Briefly: EMSA. (In general: Mobility shift assays separate free from complexed probe on a gel.)

The target of a further data set is T2, IcaR K33E (Staphylococcus epidermidis ATCC 35984 …, UniProt Q5HKQ1 1-185, K33E).
T2 sequence: T1 sequence with K33E
In words: ITC. (In general: ITC needs no label: the signal is the heat of the interaction.)

The target in data set [2] is T1, IcaR wild type. In words: EMSA. This is another data set of the same source.

B1: 24E (dsDNA)
DNA 1: AACCTAACTAACGAAAGGTAGGTG
DNA 2: CACCTACCTTTCGTTAGTTAGGTT
For the molecule B1, the binding result with IcaR wild type [1] is listed as “binds”.

B2: 28E (dsDNA)
DNA 1: ACAACCTAACTAACGAAAGGTAGGTGAA
DNA 2: TTCACCTACCTTTCGTTAGTTAGGTTGT
As for B2, the binding result in the data set with IcaR K33E is “no binding”.

B3: 16 bp probe (same center as 28E) (dsDNA)
DNA 1: TAACTAACGAAAGGTA
DNA 2: TACCTTTCGTTAGTTA
With B3, the binding result with IcaR wild type [2] is reported as “no binding”.
